From the supplement of paper PMC10567573

B1: OAS1 (parent)
chain: TPAKSLDKFIEDYLLPDTCFRMQI

Variants of: B1
Test: protein stability index of a GFP-peptide fusion (GPS, HEK-293T) (PSI 1-6); higher = more stable
Details: c terminus: a fixed tail appended
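Also: lentivirally expressed fusions sorted by FACS into six bins by GFP to DsRed ratio, PSI derived from sequencing read proportions per bin multiplied by bin number.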

Going from TPAKSLDKFINDYLLPDTCFRMQI [E11N] to TPAKSLDKFIKDYLLPDTCFRMQI [E11K], the protein stability index falls from 3.04 to 2.83.

Going from TPAKSLDKFIQDYLLPDTCFRMQI [E11Q] to TPAKSLDKFILDYLLPDTCFRMQI [E11L], the protein stability index rises from 2.19 to 3.59.

First: TPAKSLDKFIDDYLLPDTCFRMQI [E11D]
Second: TPAKSLDKFIFDYLLPDTCFRMQI [E11F]
The protein stability index of the first is higher: 2.34 for the first, 2.29 for the second.

First: TPAKSLDKFICDYLLPDTCFRMQI [E11C]
Second: TPAKSLDKFIWDYLLPDTCFRMQI [E11W]
The protein stability index of the first is lower: 2.38 for the first, 2.84 for the second.

Going from TPAKSLDKFIMDYLLPDTCFRMQI [E11M] to TPAKSLDKFIIDYLLPDTCFRMQI [E11I], the protein stability index falls from 3.78 to 2.61.

First: TPAKSLDKFITDYLLPDTCFRMQI [E11T]
Second: TPAKSLDKFIADYLLPDTCFRMQI [E11A]
The protein stability index of the first is lower: 2.33 for the first, 2.77 for the second.

First: TPAKSLDKFIYDYLLPDTCFRMQI [E11Y]
Second: TPAKSLDKFIVDYLLPDTCFRMQI [E11V]
The protein stability index of the first is lower: 1.66 for the first, 3.93 for the second.

First: TPAKSLDKFIHDYLLPDTCFRMQI [E11H]
Second: TPAKSLDKFIRDYLLPDTCFRMQI [E11R]
The protein stability index of the first is lower: 1.26 for the first, 4.73 for the second.

Compared with TPAKSLDKFISDYLLPDTCFRMQI [E11S], TPAKSLDKFIPDYLLPDTCFRMQI [E11P] is higher in protein stability index: 1.97 for the first, 3.89 for the second.

Compared with TPAKSLDKFIGDYLLPDTCFRMQI [E11G], TPAKSLDWFIEDYLLPDTCFRMQI [K8W] is lower in protein stability index: 3 for the first, 1.98 for the second.

First: TPAKSLDVFIEDYLLPDTCFRMQI [K8V]
Second: TPAKSLDKFPEDYLLPDTCFRMQI [I10P]
The protein stability index of the first is higher: 3.42 for the first, 1.87 for the second.

Going from TPAKSLDKFGEDYLLPDTCFRMQI [I10G] to TPAKSLDKFVEDYLLPDTCFRMQI [I10V], the protein stability index rises from 2.23 to 3.54.

Going from TPAKSLDKFAEDYLLPDTCFRMQI [I10A] to TPAKSLDKFMEDYLLPDTCFRMQI [I10M], the protein stability index rises from 2.48 to 3.83.

Going from TPAKSLDKFSEDYLLPDTCFRMQI [I10S] to TPAKSLDKFLEDYLLPDTCFRMQI [I10L], the protein stability index rises from 1.7 to 3.56.

Going from TPAKSLDKFYEDYLLPDTCFRMQI [I10Y] to TPAKSLDKFDEDYLLPDTCFRMQI [I10D], the protein stability index falls from 2.38 to 1.55.

First: TPAKSLDKFQEDYLLPDTCFRMQI [I10Q]
Second: TPAKSLDKFNEDYLLPDTCFRMQI [I10N]
The protein stability index of the first is higher: 1.67 for the first, 1.51 for the second.

Going from TPAKSLDKFHEDYLLPDTCFRMQI [I10H] to TPAKSLDKFKEDYLLPDTCFRMQI [I10K], the protein stability index falls from 1.92 to 1.31.

Compared with TPAKSLDKFCEDYLLPDTCFRMQI [I10C], TPAKSLDKFTEDYLLPDTCFRMQI [I10T] is lower in protein stability index: 3.19 for the first, 2.35 for the second.

Compared with TPAKSLDKFFEDYLLPDTCFRMQI [I10F], TPAKSLDKFEEDYLLPDTCFRMQI [I10E] is lower in protein stability index: 3.41 for the first, 2.52 for the second.

Going from TPAKSLDKFREDYLLPDTCFRMQI [I10R] to TPAKSLDKDIEDYLLPDTCFRMQI [F9D], the protein stability index falls from 2.78 to 2.17.

First: TPAKSLDKSIEDYLLPDTCFRMQI [F9S]
Second: TPAKSLDKLIEDYLLPDTCFRMQI [F9L]
The protein stability index of the first is lower: 2.32 for the first, 3.52 for the second.

Going from TPAKSLDKRIEDYLLPDTCFRMQI [F9R] to TPAKSLDKTIEDYLLPDTCFRMQI [F9T], the protein stability index rises from 2.08 to 2.95.

First: TPAKSLDKYIEDYLLPDTCFRMQI [F9Y]
Second: TPAKSLDKVIEDYLLPDTCFRMQI [F9V]
The protein stability index of the first is lower: 1.96 for the first, 3.9 for the second.

First: TPAKSLDKMIEDYLLPDTCFRMQI [F9M]
Second: TPAKSLDKGIEDYLLPDTCFRMQI [F9G]
The protein stability index of the first is higher: 3.26 for the first, 1.62 for the second.

First: TPAKSLDKWIEDYLLPDTCFRMQI [F9W]
Second: TPAKSLDKPIEDYLLPDTCFRMQI [F9P]
The protein stability index of the first is higher: 3.55 for the first, 1.97 for the second.

Going from TPAKSLDKEIEDYLLPDTCFRMQI [F9E] to TPAKSLDKCIEDYLLPDTCFRMQI [F9C], the protein stability index rises from 1.75 to 2.66.

First: TPAKSLDKNIEDYLLPDTCFRMQI [F9N]
Second: TPAKSLDKHIEDYLLPDTCFRMQI [F9H]
The protein stability index of the first is higher: 3.1 for the first, 2.91 for the second.

Going from TPAKSLDKQIEDYLLPDTCFRMQI [F9Q] to TPAKSLDKAIEDYLLPDTCFRMQI [F9A], the protein stability index rises from 2.15 to 2.42.

First: TPAKSLDKKIEDYLLPDTCFRMQI [F9K]
Second: TPAKSLDKFIEDYDLPDTCFRMQI [L14D]
The protein stability index of the first is higher: 2.13 for the first, 1.77 for the second.

First: TPAKSLDKFIEDYCLPDTCFRMQI [L14C]
Second: TPAKSLDKFIEDYELPDTCFRMQI [L14E]
The protein stability index of the first is higher: 2.35 for the first, 1.74 for the second.

First: TPAKSLDKFIEDSLLPDTCFRMQI [Y13S]
Second: TPAKSLDKFIEDFLLPDTCFRMQI [Y13F]
The protein stability index of the first is lower: 2.22 for the first, 3.4 for the second.

Compared with TPAKSLDKFIEDGLLPDTCFRMQI [Y13G], TPAKSLDKFIEDDLLPDTCFRMQI [Y13D] is higher in protein stability index: 1.85 for the first, 2.36 for the second.

First: TPAKSLDKFIEDRLLPDTCFRMQI [Y13R]
Second: TPAKSLDKFIEDQLLPDTCFRMQI [Y13Q]
The protein stability index of the first is lower: 1.27 for the first, 1.5 for the second.

First: TPAKSLDKFIEDNLLPDTCFRMQI [Y13N]
Second: TPAKSLDKFIEDPLLPDTCFRMQI [Y13P]
The protein stability index of the first is higher: 1.85 for the first, 1.57 for the second.

Compared with TPAKSLDKFIEDCLLPDTCFRMQI [Y13C], TPAKSLDKFIEDMLLPDTCFRMQI [Y13M] is lower in protein stability index: 3.56 for the first, 2.12 for the second.

Compared with TPAKSLDKFIEDALLPDTCFRMQI [Y13A], TPAKSLDKFIEDELLPDTCFRMQI [Y13E] is lower in protein stability index: 1.98 for the first, 1.79 for the second.

First: TPAKSLDKFIEDVLLPDTCFRMQI [Y13V]
Second: TPAKSLDKFIEDWLLPDTCFRMQI [Y13W]
The protein stability index of the first is lower: 2.87 for the first, 3.04 for the second.

Going from TPAKSLDKFIEDLLLPDTCFRMQI [Y13L] to TPAKSLDKFIEDILLPDTCFRMQI [Y13I], the protein stability index falls from 3.57 to 2.54.

Going from TPAKSLDKFIEDTLLPDTCFRMQI [Y13T] to TPAKSLDKFIEWYLLPDTCFRMQI [D12W], the protein stability index rises from 1.9 to 2.51.

Going from TPAKSLDKFIEYYLLPDTCFRMQI [D12Y] to TPAKSLDKFIEAYLLPDTCFRMQI [D12A], the protein stability index rises from 2.19 to 3.14.

Compared with TPAKSLDKFIESYLLPDTCFRMQI [D12S], TPAKSLDKFIEGYLLPDTCFRMQI [D12G] is lower in protein stability index: 2.1 for the first, 1.79 for the second.

Going from TPAKSLDKFIEHYLLPDTCFRMQI [D12H] to TPAKSLDKFIEMYLLPDTCFRMQI [D12M], the protein stability index rises from 2.25 to 2.77.

Going from TPAKSLDKFIETYLLPDTCFRMQI [D12T] to TPAKSLDKFIELYLLPDTCFRMQI [D12L], the protein stability index rises from 2.58 to 2.81.

First: TPAKSLDKFIEKYLLPDTCFRMQI [D12K]
Second: TPAKSLDKFIECYLLPDTCFRMQI [D12C]
The protein stability index of the first is higher: 2.75 for the first, 1.76 for the second.

First: TPAKSLDKFIERYLLPDTCFRMQI [D12R]
Second: TPAKSLDKFIEQYLLPDTCFRMQI [D12Q]
The protein stability index of the first is higher: 3.33 for the first, 2.92 for the second.

First: TPAKSLDKFIEIYLLPDTCFRMQI [D12I]
Second: TPAKSLDKFIEEYLLPDTCFRMQI [D12E]
The protein stability index of the first is lower: 1.4 for the first, 2.14 for the second.

Compared with TPAKSLDKFIEFYLLPDTCFRMQI [D12F], TPAKSLDKFIENYLLPDTCFRMQI [D12N] is lower in protein stability index: 2.97 for the first, 2.91 for the second.
